Assay results published in US20060041106A1.

Biological target: Fas/Apo-1 receptor (human) (UniProt P25445)
Test: cell-based or functional assay

UniProt P25445, sequence (P25445 26-335): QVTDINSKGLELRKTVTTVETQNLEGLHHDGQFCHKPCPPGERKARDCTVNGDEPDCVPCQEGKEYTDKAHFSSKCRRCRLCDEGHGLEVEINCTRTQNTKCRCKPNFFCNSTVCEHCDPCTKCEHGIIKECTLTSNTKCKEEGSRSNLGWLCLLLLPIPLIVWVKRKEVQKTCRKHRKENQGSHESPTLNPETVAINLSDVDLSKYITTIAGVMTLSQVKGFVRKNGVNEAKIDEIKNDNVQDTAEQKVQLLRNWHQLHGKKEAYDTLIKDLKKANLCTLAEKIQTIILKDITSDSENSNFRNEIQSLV

% apoptotic cells, 9D cells, CH11 1 ug/ml, 24 h (control 22.5): 90.8%
% apoptotic cells, Jurkat cells, CH11 1 ug/ml, 24 h (control 5.9): 18.1%
% apoptotic cells, Raji cells, CH11 1 ug/ml, 24 h (control 35.9): 83.7%
Substance: anti-Apo-1 monoclonal antibody, CH11
